According to patent US7662384B2, “Use of anti-α5β1 antibodies to inhibit cancer cell proliferation” (Facet Biotech Corporation, priority 2004, dated 2010):

Columns and labels:
[1] = target: T1, α5β1 integrin on the cell surface of A2058 (Homo sapiens, UniProt P05556+P08648); experiment: FACS analysis of cancer cell line with IIA1; format: binding; details: A2058 (melanoma); IIA1 10 μg/ml; background MFI ~5
T1 construct: endogenous in cells
Method: (§1) Cells were removed with 5 mM EDTA in Tris-HCl (pH 8.0) and blocked by centrifugation in Hank's balanced salt solution containing 3% heat inactivated FBS, 1% normal goat serum (Sigma) and 1% BSA at 4° C. for 5 minutes. Cells were incubated for 30-60 minutes at 4° C. with the mouse anti-α5β1 antibody, IIA1 (10 μg/ml) in FACS buffer (PBS containing 0.1% BSA). Excess monoclonal antibody was removed by centrifugation and cells were washed two times with FACS buffer prior to resuspending in PE-anti-mouse IgG (H+ L) antibody (Southern Biotech, 1:400 dilution) for 30-60 minutes at 4° C. After washing cells were re-suspended in FACS buffer containing propidium iodide (1 μg/ml). Mean fluorescence intensity (MFI) was measured on a FACSCalibur (Becton Dickinson). Background MFI was ˜5.

[2] = target: T2, α5β1 integrin on the cell surface of A498 (Homo sapiens, UniProt P05556+P08648); experiment: FACS analysis of cancer cell line with IIA1; format: binding; details: A498 (renal); IIA1 10 μg/ml; background MFI ~5
T2 construct: endogenous in cells
T2 sequence (P08648 42-894 limits assumed): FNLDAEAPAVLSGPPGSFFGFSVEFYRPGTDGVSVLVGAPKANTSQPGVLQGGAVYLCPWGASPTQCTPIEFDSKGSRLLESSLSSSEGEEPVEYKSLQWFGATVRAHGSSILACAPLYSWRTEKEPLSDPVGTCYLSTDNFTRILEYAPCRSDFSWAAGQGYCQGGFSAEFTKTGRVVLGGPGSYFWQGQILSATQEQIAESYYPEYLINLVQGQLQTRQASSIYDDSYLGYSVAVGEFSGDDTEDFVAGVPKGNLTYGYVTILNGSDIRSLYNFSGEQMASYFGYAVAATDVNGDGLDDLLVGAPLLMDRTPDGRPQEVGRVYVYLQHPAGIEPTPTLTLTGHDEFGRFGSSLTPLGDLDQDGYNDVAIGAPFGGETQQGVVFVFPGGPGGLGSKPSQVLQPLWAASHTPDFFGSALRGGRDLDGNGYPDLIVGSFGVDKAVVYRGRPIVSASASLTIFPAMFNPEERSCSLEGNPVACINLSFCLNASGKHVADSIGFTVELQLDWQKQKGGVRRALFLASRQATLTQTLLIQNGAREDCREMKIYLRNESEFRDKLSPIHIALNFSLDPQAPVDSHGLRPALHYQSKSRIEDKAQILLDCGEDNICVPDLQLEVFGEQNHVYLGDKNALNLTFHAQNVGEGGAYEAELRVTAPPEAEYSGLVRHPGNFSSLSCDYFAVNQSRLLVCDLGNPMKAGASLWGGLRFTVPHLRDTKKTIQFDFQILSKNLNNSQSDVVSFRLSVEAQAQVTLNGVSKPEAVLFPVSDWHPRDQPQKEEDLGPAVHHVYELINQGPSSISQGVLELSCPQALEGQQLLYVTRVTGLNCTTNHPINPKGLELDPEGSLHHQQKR
T2 sequence (P08648 895-1049 limits assumed): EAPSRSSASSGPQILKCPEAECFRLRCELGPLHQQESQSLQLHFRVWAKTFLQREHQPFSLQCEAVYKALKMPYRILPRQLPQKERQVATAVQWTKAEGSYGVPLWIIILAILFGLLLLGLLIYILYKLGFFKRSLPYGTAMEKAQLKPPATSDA
T2 sequence (P05556 21-798): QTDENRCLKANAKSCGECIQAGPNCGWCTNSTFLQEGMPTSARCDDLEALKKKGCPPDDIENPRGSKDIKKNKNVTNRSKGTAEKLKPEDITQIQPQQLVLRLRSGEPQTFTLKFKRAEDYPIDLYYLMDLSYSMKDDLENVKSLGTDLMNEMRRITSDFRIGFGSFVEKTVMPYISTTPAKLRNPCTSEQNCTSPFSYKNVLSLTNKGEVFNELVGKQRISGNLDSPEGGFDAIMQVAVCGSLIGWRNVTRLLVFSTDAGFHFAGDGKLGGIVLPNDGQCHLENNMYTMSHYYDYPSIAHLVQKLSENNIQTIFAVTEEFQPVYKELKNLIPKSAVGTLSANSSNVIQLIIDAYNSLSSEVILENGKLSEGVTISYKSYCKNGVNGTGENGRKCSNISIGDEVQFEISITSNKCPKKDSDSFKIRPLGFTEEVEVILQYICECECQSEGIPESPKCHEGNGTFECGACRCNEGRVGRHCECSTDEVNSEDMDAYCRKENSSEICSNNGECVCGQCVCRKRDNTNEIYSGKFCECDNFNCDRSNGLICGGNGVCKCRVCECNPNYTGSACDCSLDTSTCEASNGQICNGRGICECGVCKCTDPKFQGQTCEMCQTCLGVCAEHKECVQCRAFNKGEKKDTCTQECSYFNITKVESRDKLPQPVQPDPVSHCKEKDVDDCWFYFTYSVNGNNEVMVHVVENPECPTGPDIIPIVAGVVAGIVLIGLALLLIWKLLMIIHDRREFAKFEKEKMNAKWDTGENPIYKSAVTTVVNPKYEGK
Method: as §1

[3] = target: T3, α5β1 integrin on the cell surface of A549 (Homo sapiens, UniProt P05556+P08648); experiment: FACS analysis of cancer cell line with IIA1; format: binding; details: A549 (lung); IIA1 10 μg/ml; background MFI ~5
T3 construct: endogenous in cells
T3 sequence (P08648 42-894 limits assumed): as the sequence (P08648 42-894 limits assumed) above
T3 sequence (P08648 895-1049 limits assumed): as the sequence (P08648 895-1049 limits assumed) above
T3 sequence (P05556 21-798): as the sequence (P05556 21-798) above
Method: as §1

[4] = target: T4, α5β1 integrin on the cell surface of COLO 357 (Homo sapiens, UniProt P05556+P08648); experiment: FACS analysis of cancer cell line with IIA1; format: binding; details: COLO 357 (pancreas); IIA1 10 μg/ml; background MFI ~5
T4 construct: endogenous in cells
T4 sequence (P08648 42-894 limits assumed): as the sequence (P08648 42-894 limits assumed) above
T4 sequence (P08648 895-1049 limits assumed): as the sequence (P08648 895-1049 limits assumed) above
T4 sequence (P05556 21-798): as the sequence (P05556 21-798) above
Method: as §1

[5] = target: T5, α5β1 integrin on the cell surface of H460 (Homo sapiens, UniProt P05556+P08648); experiment: FACS analysis of cancer cell line with IIA1; format: binding; details: H460 (lung); IIA1 10 μg/ml; background MFI ~5
T5 construct: endogenous in cells
T5 sequence (P08648 42-894 limits assumed): as the sequence (P08648 42-894 limits assumed) above
T5 sequence (P08648 895-1049 limits assumed): as the sequence (P08648 895-1049 limits assumed) above
T5 sequence (P05556 21-798): as the sequence (P05556 21-798) above
Method: as §1

[6] = target: T6, α5β1 integrin on the cell surface of HCT-116 (Homo sapiens, UniProt P05556+P08648); experiment: FACS analysis of cancer cell line with IIA1; format: binding; details: HCT-116 (colon); IIA1 10 μg/ml; background MFI ~5
T6 construct: endogenous in cells
T6 sequence (P08648 42-894 limits assumed): as the sequence (P08648 42-894 limits assumed) above
T6 sequence (P08648 895-1049 limits assumed): as the sequence (P08648 895-1049 limits assumed) above
T6 sequence (P05556 21-798): as the sequence (P05556 21-798) above
Method: as §1

[7] = target: T7, α5β1 integrin on the cell surface of HT1080 (Homo sapiens, UniProt P05556+P08648); experiment: FACS analysis of cancer cell line with IIA1; format: binding; details: HT1080 (fibrosarcoma); IIA1 10 μg/ml; background MFI ~5
T7 construct: endogenous in cells
T7 sequence (P08648 42-894 limits assumed): as the sequence (P08648 42-894 limits assumed) above
T7 sequence (P08648 895-1049 limits assumed): as the sequence (P08648 895-1049 limits assumed) above
T7 sequence (P05556 21-798): as the sequence (P05556 21-798) above
Method: as §1

[8] = target: T8, α5β1 integrin on the cell surface of MIA PACA-2 (Homo sapiens, UniProt P05556+P08648); experiment: FACS analysis of cancer cell line with IIA1; format: binding; details: MIA PACA-2 (pancreas); IIA1 10 μg/ml; background MFI ~5
T8 construct: endogenous in cells
T8 sequence (P08648 42-894 limits assumed): as the sequence (P08648 42-894 limits assumed) above
T8 sequence (P08648 895-1049 limits assumed): as the sequence (P08648 895-1049 limits assumed) above
T8 sequence (P05556 21-798): as the sequence (P05556 21-798) above
Method: as §1

[9] = target: T9, α5β1 integrin on the cell surface of SW839 (Homo sapiens, UniProt P05556+P08648); experiment: FACS analysis of cancer cell line with IIA1; format: binding; details: SW839 (renal); IIA1 10 μg/ml; background MFI ~5
T9 construct: endogenous in cells
T9 sequence (P08648 42-894 limits assumed): as the sequence (P08648 42-894 limits assumed) above
T9 sequence (P08648 895-1049 limits assumed): as the sequence (P08648 895-1049 limits assumed) above
T9 sequence (P05556 21-798): as the sequence (P05556 21-798) above
Method: as §1

[10] = target: T10, α5β1 integrin on the cell surface of TK-10 (Homo sapiens, UniProt P05556+P08648); experiment: FACS analysis of cancer cell line with IIA1; format: binding; details: TK-10 (renal); IIA1 10 μg/ml; background MFI ~5
T10 construct: endogenous in cells
T10 sequence (P08648 42-894 limits assumed): as the sequence (P08648 42-894 limits assumed) above
T10 sequence (P08648 895-1049 limits assumed): as the sequence (P08648 895-1049 limits assumed) above
T10 sequence (P05556 21-798): as the sequence (P05556 21-798) above
Method: as §1

LOX = experiment: M200 in vitro cell proliferation assay; format: cell-based; details: LOX (melanoma)
Method: Cancer cell lines were plated at a density of 2500 cells/well in 96-well plates in IMDM with supplements in the presence or absence of 10% FBS. At the time of plating, cells were challenged with various concentrations M200 or a non-function blocking anti-α5 antibody, VC5. […] All growth studies were done at least 3 times in triplicate.

[11] = predicted human serum levels of M200 from monkey PK data; set-up: species or system humans
Method: At the highest dose in humans (15.0 mg/kg), the mean peak after 5 doses was predicted to be 592 μg/mL with the range of variability in humans predicted as 320 to 829 μg/mL. Table 3, was compiled using PK data from the monkey studies to predict the peak and tough serum concentrations (Cmax and Cmin, respectively) for each dose at each dose level in humans.

T1 sequence (P08648 42-894 limits assumed): as the sequence (P08648 42-894 limits assumed) above
T1 sequence (P08648 895-1049 limits assumed): as the sequence (P08648 895-1049 limits assumed) above
T1 sequence (P05556 21-798): as the sequence (P05556 21-798) above

B1: IIA1: parent mouse IgG1 class anti-α5β1 antibody shown to inhibit α5β1 integrin binding to fibronectin (antibody, V domains shown)
VH: MAVLGLLLCLVTFPSCVLSQVQLKESGPGLVAPSQSLSITCTISGFSLTDYGVHWVRQPPGKGLEWLVVIWSDGSSTYNSALKSRMTIRKDNSKSQVFLIMNSLQTDDSAMYYCARHGTYYGMTTTGDALDYWGQGTSVTVSS
VL: MDFQVQIFSFLLISASVIMSRGQIVLTQSPAIMSASLGERVTMTCTASSSVSSNYLHWYQQKPGSAPNLWIYSTSNLASGVPARFSGSGSGTSYSLTISSMEAEDAATYYCHQYLRSPPTFGGGTKLEIK
modifications: mus muscalus
α5β1 Surface Expression (MFI) [1]: 36.2 MFI | α5β1 Surface Expression (MFI) [2]: 67.1 MFI | α5β1 Surface Expression (MFI) [3]: 71.41 MFI | α5β1 Surface Expression (MFI) [4]: 7.8 MFI | α5β1 Surface Expression (MFI) [5]: 87.5 MFI | α5β1 Surface Expression (MFI) [6]: 42.5 MFI | α5β1 Surface Expression (MFI) [7]: 421.7 MFI | α5β1 Surface Expression (MFI) [8]: 61.9 MFI | α5β1 Surface Expression (MFI) [9]: 65.8 MFI | α5β1 Surface Expression (MFI) [10]: 36.6 MFI

B2: M200: chimeric IgG4 anti-α5β1 antibody derived from IIA1; generic name volociximab (antibody, V domains shown)
VH: B1 VH
VL: MDFQVQIFSFLLISASVIMSRGQIVLTQSPAIMSASLGERVTMTCTASSSVSSNYLHWYQQKPGSAPNLWIYSTSNLASGVPARFSGSGSGTSYSLTISSMEAEDAATYYCHQYLRSPPTFGGGTKLEIKDMSVDMSV
modifications: chimeric antibody
notes: chimeric IgG4 anti-α5β1 antibody derived from IIA1; generic name volociximab
% Growth Inhibition +Serum (LOX; 10% FBS, 4-day assay): 35% | % Growth Inhibition −Serum (LOX; absence of serum, 2-day rather than 4-day assay): 40^2% | Estimated peak serum level (Cmax) in humans ([11]; 0.5 mg/kg, dose number 1): 11 µg/mL | Estimated trough serum level (Cmin) in humans ([11]; 0.5 mg/kg, dose number 1): 1.5 µg/mL | Estimated peak serum level (Cmax) in humans ([11]; 0.5 mg/kg, dose number 2): 11 µg/mL | Estimated trough serum level (Cmin) in humans ([11]; 0.5 mg/kg, dose number 2): 1.6 µg/mL | Estimated peak serum level (Cmax) in humans ([11]; 0.5 mg/kg, dose number 3): 12 µg/mL | Estimated trough serum level (Cmin) in humans ([11]; 0.5 mg/kg, dose number 3): 2 µg/mL | Estimated peak serum level (Cmax) in humans ([11]; 0.5 mg/kg, dose number 4): 13 µg/mL | Estimated trough serum level (Cmin) in humans ([11]; 0.5 mg/kg, dose number 4): 2.1 µg/mL | Estimated peak serum level (Cmax) in humans ([11]; 0.5 mg/kg, dose number 5): 13 µg/mL | Estimated trough serum level (Cmin) in humans ([11]; 0.5 mg/kg, dose number 5): 2.2 µg/mL | Estimated peak serum level (Cmax) in humans ([11]; 1.0 mg/kg, dose number 1): 22 µg/mL | Estimated trough serum level (Cmin) in humans ([11]; 1.0 mg/kg, dose number 1): 3 µg/mL | Estimated peak serum level (Cmax) in humans ([11]; 1.0 mg/kg, dose number 2): 22 µg/mL | Estimated trough serum level (Cmin) in humans ([11]; 1.0 mg/kg, dose number 2): 3 µg/mL | Estimated peak serum level (Cmax) in humans ([11]; 1.0 mg/kg, dose number 3): 25 µg/mL | Estimated trough serum level (Cmin) in humans ([11]; 1.0 mg/kg, dose number 3): 4 µg/mL | Estimated peak serum level (Cmax) in humans ([11]; 1.0 mg/kg, dose number 4): 26 µg/mL | Estimated trough serum level (Cmin) in humans ([11]; 1.0 mg/kg, dose number 4): 5 µg/mL | Estimated peak serum level (Cmax) in humans ([11]; 1.0 mg/kg, dose number 5): 26 µg/mL | Estimated trough serum level (Cmin) in humans ([11]; 1.0 mg/kg, dose number 5): 5 µg/mL | Estimated peak serum level (Cmax) in humans ([11]; 2.5 mg/kg, dose number 1): 54 µg/mL | Estimated trough serum level (Cmin) in humans ([11]; 2.5 mg/kg, dose number 1): 9 µg/mL | Estimated peak serum level (Cmax) in humans ([11]; 2.5 mg/kg, dose number 2): 57 µg/mL | Estimated trough serum level (Cmin) in humans ([11]; 2.5 mg/kg, dose number 2): 10 µg/mL | Estimated peak serum level (Cmax) in humans ([11]; 2.5 mg/kg, dose number 3): 64 µg/mL | Estimated trough serum level (Cmin) in humans ([11]; 2.5 mg/kg, dose number 3): 13 µg/mL | Estimated peak serum level (Cmax) in humans ([11]; 2.5 mg/kg, dose number 4): 67 µg/mL | Estimated trough serum level (Cmin) in humans ([11]; 2.5 mg/kg, dose number 4): 14 µg/mL | Estimated peak serum level (Cmax) in humans ([11]; 2.5 mg/kg, dose number 5): 68 µg/mL | Estimated trough serum level (Cmin) in humans ([11]; 2.5 mg/kg, dose number 5): 15 µg/mL | Estimated peak serum level (Cmax) in humans ([11]; 5.0 mg/kg, dose number 1): 108 µg/mL | Estimated trough serum level (Cmin) in humans ([11]; 5.0 mg/kg, dose number 1): 20 µg/mL | Estimated peak serum level (Cmax) in humans ([11]; 5.0 mg/kg, dose number 2): 114 µg/mL | Estimated trough serum level (Cmin) in humans ([11]; 5.0 mg/kg, dose number 2): 24 µg/mL | Estimated peak serum level (Cmax) in humans ([11]; 5.0 mg/kg, dose number 3): 132 µg/mL | Estimated trough serum level (Cmin) in humans ([11]; 5.0 mg/kg, dose number 3): 33 µg/mL | Estimated peak serum level (Cmax) in humans ([11]; 5.0 mg/kg, dose number 4): 141 µg/mL | Estimated trough serum level (Cmin) in humans ([11]; 5.0 mg/kg, dose number 4): 39 µg/mL | Estimated peak serum level (Cmax) in humans ([11]; 5.0 mg/kg, dose number 5): 147 µg/mL | Estimated trough serum level (Cmin) in humans ([11]; 5.0 mg/kg, dose number 5): 43 µg/mL | Estimated peak serum level (Cmax) in humans ([11]; 10.0 mg/kg, dose number 1): 216 µg/mL | Estimated trough serum level (Cmin) in humans ([11]; 10.0 mg/kg, dose number 1): 51 µg/mL | Estimated peak serum level (Cmax) in humans ([11]; 10.0 mg/kg, dose number 2): 236 µg/mL | Estimated trough serum level (Cmin) in humans ([11]; 10.0 mg/kg, dose number 2): 66 µg/mL | Estimated peak serum level (Cmax) in humans ([11]; 10.0 mg/kg, dose number 3): 282 µg/mL | Estimated trough serum level (Cmin) in humans ([11]; 10.0 mg/kg, dose number 3): 101 µg/mL | Estimated peak serum level (Cmax) in humans ([11]; 10.0 mg/kg, dose number 4): 317 µg/mL | Estimated trough serum level (Cmin) in humans ([11]; 10.0 mg/kg, dose number 4): 131 µg/mL | Estimated peak serum level (Cmax) in humans ([11]; 10.0 mg/kg, dose number 5): 346 µg/mL | Estimated trough serum level (Cmin) in humans ([11]; 10.0 mg/kg, dose number 5): 156 µg/mL | predicted terminal half-life in humans ([11]; 15.0 mg/kg): about 13 days | Estimated Cmax range (54-140%) in humans ([11]; 15.0 mg/kg, dose number 1): 175 to 453 µg/mL | Estimated peak serum level (Cmax) in humans ([11]; 15.0 mg/kg, dose number 1): 324 µg/mL | Estimated trough serum level (Cmin) in humans ([11]; 15.0 mg/kg, dose number 1): 91 µg/mL | Estimated Cmax range (54-140%) in humans ([11]; 15.0 mg/kg, dose number 2): 197 to 512 µg/mL | Estimated peak serum level (Cmax) in humans ([11]; 15.0 mg/kg, dose number 2): 366 µg/mL | Estimated trough serum level (Cmin) in humans ([11]; 15.0 mg/kg, dose number 2): 126 µg/mL | Estimated Cmax range (54-140%) in humans ([11]; 15.0 mg/kg, dose number 3): 243 to 629 µg/mL | Estimated peak serum level (Cmax) in humans ([11]; 15.0 mg/kg, dose number 3): 450 µg/mL | Estimated trough serum level (Cmin) in humans ([11]; 15.0 mg/kg, dose number 3): 200 µg/mL | Estimated Cmax range (54-140%) in humans ([11]; 15.0 mg/kg, dose number 4): 283 to 733 µg/mL | Estimated peak serum level (Cmax) in humans ([11]; 15.0 mg/kg, dose number 4): 524 µg/mL | Estimated trough serum level (Cmin) in humans ([11]; 15.0 mg/kg, dose number 4): 268 µg/mL | Estimated peak serum level (Cmax) in humans ([11]; 15.0 mg/kg, dose number 5): 592 µg/mL | Estimated trough serum level (Cmin) in humans ([11]; 15.0 mg/kg, dose number 5): 332 µg/mL | predicted time to steady state concentration ([11]; all doses <10.0 mg/kg): ≤ 4 weeks | predicted time to steady state concentration ([11]; doses ≧10.0 mg/kg): ≤ 5 weeks
